Measurements: PMC6152768, “Dynamic Allostery Modulates Catalytic Activity by Modifying the Hydrogen Bonding Network in the Catalytic Site of Human Pin1” (Molecules : A Journal of Synthetic Chemistry and Natural …, 2017)
Square brackets hold non-standard residues; d marks the D form. Ends that are not written are not given here. pT = C[C@@H](OP(=O)(O)O)[C@H](N)C(=O)O

Biological target: wild-type human Pin1 PPIase domain (human, UniProt Q13526 1-163)
Experiment: ITC; 1.5 uL injections of 10 mM Cdc25C phosphor-peptide into 200 uL of 0.2 mM wild-type or S138A Pin1 PPIase domain in the cell; Microcal Auto iTC200; single-site fit with the stoichiometry fixed to n = 1; in triplicate; buffer and temperature not stated
Settings: both partners purified

Chain of wild-type human Pin1 PPIase domain (Q13526 whole entry, the tested form may be a part): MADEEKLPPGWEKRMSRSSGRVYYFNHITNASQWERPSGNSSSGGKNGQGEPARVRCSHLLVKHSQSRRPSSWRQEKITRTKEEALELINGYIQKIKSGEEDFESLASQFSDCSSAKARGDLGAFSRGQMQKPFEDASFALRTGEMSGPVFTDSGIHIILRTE

B1: phosphor-peptide Cdc25C (EQPLpTPVTDL) (peptide)
peptide: EQPL[pT]PVTDL
notes: Phosphopeptide named Cdc25C; also called phosphorylated peptide Cdc25C; Cdc25C phosphor-peptide; source: bought: Funakoshi (Tokyo, Japan), used without further purification
B1 was tested, and the Kd was 1810 ± 290 µM and the “stoichiometry N” value was 1 ± 0.001.
